Series [1] in a line: folding stability dG unfold (combined trypsin and chymotrypsin); higher = more stable. An outline of the steps: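 Sequencing followed digestion of designed mini-proteins with trypsin and chymotrypsin, each at 11 concentrations in threefold dilutions together with a no-protease condition. The mini-proteins were under 80 residues, had no cysteine, sat in a PA-tagged cDNA display construct, and were kept only if AlphaFold2 dimer inter-PAE was above 15. From the counts, Bayesian fitting gave K50, and unfolding free energy was derived against a sequence-predicted unfolded-state K50 and a shared folded-state K50, per protease or combined.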

The nature of series [2]: folding stability dG unfold from chymotrypsin proteolysis; higher = more stable. On the procedure:
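Folding stability of de novo designed mini-proteins (<80 aa, no Cys; designed by TrROS, TrMRF, ProteinMPNN and the joint model) was measured by cDNA display proteolysis with trypsin and chymotrypsin. Each protease was used at 11 concentrations in a threefold dilution series plus a no-protease condition. K50 was inferred by Bayesian fitting of sequencing counts, and dG unfold was derived against a sequence-predicted unfolded-state K50 (Tsuboyama et al. method). Sequences shown include variable-length N-terminal GS-type padding (SAGGSAGG...) inside a display construct carrying a PA tag. Rows were kept only if the AF2 dimer inter-PAE was >15, to exclude likely homo-oligomers.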

± gives the half width of the 95% confidence interval. Where only a bound is given, the exact number is not on record here.

Take “SAGGSAGGGPYKTSYAIVDGSVVASTEGDPETGVVTSTFTFDGSDVEYTTPATPGEAVTRTVSLSAGGSAGG [r6_972_JUSTAS]”: the “folding stability dG unfold” value came out at 0.346 ± 0.047 kcal/mol in series [1] and 0.797 ± 0.059 kcal/mol in series [2].

“SAGGSAGGITLVVEGMPAEQMEEMKQKIREFAEDYNVEVNIDQERNPDGRMRATVEIEPPPGDPSAGGSAGG [r6_907_TrROS]”: the “folding stability dG unfold” value is -0.767 ± 0.28 kcal/mol in series [1] and -0.472 ± 0.15 kcal/mol in series [2].

Take “SAGGSAGGIWIPADEFKGQPIKVRIKHNGNERPIEEVKIKSHPDGFVFIEFPPELPENMKIEIESAGGSAGG [r6_630_TrROS]”: the “folding stability dG unfold” value is -0.0114 ± 0.15 kcal/mol in series [1] and 0.453 ± 0.12 kcal/mol in series [2].

Take “SAGGSAGGMIRTYELPETGEVRVLIRTPNPEEAEALAAEVRAELAAAGLDVPVEISPGPASALDSAGGSAGG [r6_641_JUSTAS]”: the “folding stability dG unfold” value in series [1] was 0.283 ± 0.18 kcal/mol; in series [2] it was 0.703 ± 0.2 kcal/mol.

With “SAGGSAGGMIVELPTPDDETLTLTTRPTPDGSVPVTATRLTPDSTEVTTVSTADPAVVELVAAASAGGSAGG [r6_607_JUSTAS]”, the “folding stability dG unfold” value was less than -1 kcal/mol in series [1] and -0.448 ± 0.26 kcal/mol in series [2].

“SAGGSAGGMKITITFPDGTKKEIEVESEEELLEAIKKLAEELGLEKEVTVTVEYNGKTYTITLKSAGGSAGG [r6_531_TrROS_Hall]”: the “folding stability dG unfold” value in series [1] was determined as 5.06 ± 0.32 kcal/mol; in series [2], 5.13 ± 0.25 kcal/mol.

As for “SAGGSAGGMKTKTYTIPLSQVSSIDPSGTVSEEEVKALGLPPNFKATVVPLPGSEEAVEVTVPESAGGSAGG [r6_553_JUSTAS]”, the results for the “folding stability dG unfold” value in series [1] and in series [2] were -0.381 ± 0.18 kcal/mol and 0.115 ± 0.11 kcal/mol, respectively.

For “SAGGSAGGMTIPAEKIKGKPIKVLVDRGNAIFPLKEAKVKTKPDGRVELYVPKELGEDTKIIAGSAGGSAGG [r6_628_TrMRF]”, the results for the “folding stability dG unfold” value in series [1] and in series [2] were less than -1 kcal/mol and -0.573 ± 0.18 kcal/mol, respectively.

For the sequence “SAGGSAGGMVKTYKTDKETAIELAEKIKKQGVKVEITPHPDSTLLTITINEPKIDPKNSPNIIISAGGSAGG [r6_392_JUSTAS]”, the “folding stability dG unfold” value in series [1] is less than -1 kcal/mol; in series [2], 0.0843 ± 0.3 kcal/mol.

Consider “SAGGSAGGPIRIDPEDGRIRNNGQPYKFDKIEDIEPNENNKSIRLTIRMKNGKEHKQPIPADDISAGGSAGG [r6_682_TrROS]”, for which the results for the “folding stability dG unfold” value in series [1] and in series [2] were less than -1 kcal/mol and -0.759 ± 1 kcal/mol, respectively.

For the sequence “SAGGSAGGPKWRRYTIPLDKIKEIDPGGTVTLDDIQDLGLPPDHEIRVVPRPDGEPWVSIEVPYSAGGSAGG [r6_553_TrROS]”, the “folding stability dG unfold” value stood at 0.201 ± 0.11 kcal/mol in series [1] and 0.506 ± 0.14 kcal/mol in series [2].

For “SAGGSAGGSAAGFTAPVVQVRTENGKIYIDVKNSSVSLTVPENAEITPLESEVVKITPLPAPSAGGSAGGSA [r18_468_JUSTAS]”, the “folding stability dG unfold” value stood at 0.00621 ± 0.22 kcal/mol in series [1] and 0.542 ± 0.1 kcal/mol in series [2].

Turning to “SAGGSAGGSAARAYTDVDPVPSTLPNGERVVRVTEAGTGTTSDVPLEALADLDRGAGVTVPPSAGGSAGGSA [r18_288_JUSTAS]”, the figures for the “folding stability dG unfold” value in series [1] and in series [2] were -0.249 ± 0.069 kcal/mol and 0.538 ± 0.059 kcal/mol, respectively.

For “SAGGSAGGSADNPQVERTIHDPNGGFKVMINPNDNSIEIWPYKNDKPEPKTFDSPEALDDISAGGSAGGSAG [r3_426_TrROS]”, the results for the “folding stability dG unfold” value in series [1] and in series [2] were -0.387 ± 0.29 kcal/mol and 0.136 ± 0.17 kcal/mol, respectively.

With “SAGGSAGGSAEKDVKLLDVEELEEERVALVEFPVDPKVVRIKFDKDMTIDEIKKKAKELAGSAGGSAGGSAG [r3_142_TrMRF]”, the “folding stability dG unfold” value in series [1] stood at 0.0889 ± 0.15 kcal/mol; in series [2] it was 0.523 ± 0.03 kcal/mol.

For “SAGGSAGGSAEVTFKKVSFSPPENTVYVSEVKAKLYVGEDDSLKFKVEPVKVEKVSPADLLAKSAGGSAGGS [r12_374_TrMRF]”, the results for the “folding stability dG unfold” value in series [1] and in series [2] were -0.439 ± 0.16 kcal/mol and 0.0476 ± 0.16 kcal/mol, respectively.

On to “SAGGSAGGSAGGAAEVLEALRAARGQPVVVLVKDPAGNEREVTVPGDTARFPGWTVVELLSAGGSAGGSAGG [r7_998_JUSTAS]”, for which the “folding stability dG unfold” value in series [1] is 0.341 ± 0.17 kcal/mol; in series [2], 0.739 ± 0.11 kcal/mol.

On to “SAGGSAGGSAGGAIEEARDLAKEGGPWEATIPVYDPNGGPKTIKIRVEVERDPENGKFKSAGGSAGGSAGGS [r10_346_TrROS]”, for which the “folding stability dG unfold” value is -0.0783 ± 0.19 kcal/mol in series [1] and 0.257 ± 0.12 kcal/mol in series [2].

With “SAGGSAGGSAGGAMPNDVKVTTTTFTGTETLTLTDASGTPTSSTKTVTTTRTSVFPDTTSAGGSAGGSAGGS [r10_1212_JUSTAS]”, the “folding stability dG unfold” value in series [1] was 0.311 ± 0.13 kcal/mol; in series [2], 0.733 ± 0.1 kcal/mol.

Take “SAGGSAGGSAGGAPVTVIPVKKDNPEVREKTAKELKEKAKEIDPSNIKITIEKGVVTLESAGGSAGGSAGGS [r10_182_JUSTAS]”: the “folding stability dG unfold” value was -0.0644 ± 0.13 kcal/mol in series [1] and 0.263 ± 0.049 kcal/mol in series [2].

For the sequence “SAGGSAGGSAGGAVGPDVGLPDAPVRFRNPSDDKVFTAYVPAGANFADLAKKYGVEIEPSAGGSAGGSAGGS [r10_202_TrMRF]”, the “folding stability dG unfold” value in series [1] is 0.167 ± 0.15 kcal/mol; in series [2] it was 0.673 ± 0.14 kcal/mol.

On to “SAGGSAGGSAGGDVLLFVDESTGLADARALAEALGLKDVVIVPVPPAKPVVLNADGSPTSAGGSAGGSAGGS [r10_1083_TrMRF]”, for which the “folding stability dG unfold” value in series [1] is -0.0616 ± 0.1 kcal/mol; in series [2], 0.63 ± 0.052 kcal/mol.

For “SAGGSAGGSAGGEPDPKFHVEYDEEEGRYKVKIYNPNNNKKEEIEVPVPPGQPKEEAIKSAGGSAGGSAGGS [r10_676_TrROS]”, the “folding stability dG unfold” value in series [1] is -0.269 ± 0.27 kcal/mol; in series [2] it was 0.0247 ± 0.11 kcal/mol.

As to “SAGGSAGGSAGGGERRRVLHINPEDGYIQRMEFDPDDGEPTGSETVPFKSPEDALDKLIDSAGGSAGGSAGG [r7_105_TrROS]”, the figures for the “folding stability dG unfold” value in series [1] and in series [2] were -0.152 ± 0.2 kcal/mol and 0.342 ± 0.14 kcal/mol, respectively.

For the sequence “SAGGSAGGSAGGGEYAKIKIKNPINPKYKEIEIEIPSNKKNVIINATGSGNATITEIKLESAGGSAGGSAGG [r7_687_TrMRF]”, the results for the “folding stability dG unfold” value in series [1] and in series [2] were -0.584 ± 0.49 kcal/mol and 0.177 ± 0.27 kcal/mol, respectively.

Take “SAGGSAGGSAGGGMILNITLIRPDGKPIVIEGPLDKPLYNPKKAGIENIPPEKLVKVEPRSAGGSAGGSAGG [r7_745_TrMRF]”: the “folding stability dG unfold” value was less than -1 kcal/mol in series [1] and -0.891 ± 0.8 kcal/mol in series [2].

As for “SAGGSAGGSAGGGMRLVEVPPGDPAAVEARLAELGPDARLLEVRRLPEEGRWVVLVSEESAGGSAGGSAGGS [r10_23_JUSTAS]”, the “folding stability dG unfold” value in series [1] was -0.258 ± 0.33 kcal/mol; in series [2] it was 0.643 ± 0.2 kcal/mol.

For “SAGGSAGGSAGGGPMLRYTLTFTLPDSTVTKEFSSEEEVEEAKEQLPEEYPVDPNVTVSPSAGGSAGGSAGG [r7_18_JUSTAS]”, the “folding stability dG unfold” value in series [1] was -0.22 ± 0.32 kcal/mol; in series [2] it was -0.113 ± 0.43 kcal/mol.

Take “SAGGSAGGSAGGGPNIRTVTETTVEPTPDSVVTTRPVYYVDPSGTVLGSETTTTVDPNTTSAGGSAGGSAGG [r7_812_JUSTAS]”: the entries for the “folding stability dG unfold” value in series [1] and in series [2] were -0.26 ± 0.13 kcal/mol and 0.179 ± 0.034 kcal/mol, respectively.

Consider “SAGGSAGGSAGGGPPLPLRVEREEKVEKTPDDRVLIKRKVTVELPDRPLSEEESIEILLESAGGSAGGSAGG [r7_293_JUSTAS]”, for which the results for the “folding stability dG unfold” value in series [1] and in series [2] were -0.415 ± 0.25 kcal/mol and 0.146 ± 0.2 kcal/mol, respectively.

For the sequence “SAGGSAGGSAGGIYIPLEDLEKNGLGFEELVEKLGVDVEIEVLETEPGKPVAKIRPKLGSAGGSAGGSAGGS [r10_855_TrMRF]”, the “folding stability dG unfold” value in series [1] was 0.435 ± 0.093 kcal/mol; in series [2] it was 0.968 ± 0.027 kcal/mol.

Take “SAGGSAGGSAGGKTLSKEEALKKAKELAEKGEKVKIEVKNKKTKKTETIEITKEELEKLSAGGSAGGSAGGS [r10_779_TrROS_Hall]”: the “folding stability dG unfold” value in series [1] was determined as 0.151 ± 0.44 kcal/mol; in series [2] it was 0.47 ± 0.13 kcal/mol.

These data come from the supplement of paper PMC12764529.
